Literature values, collected in article PMC9837045.
“And” between values parts separate entries of the source, which are not always exact repeats. Identical values can stand only once. Like-named read-outs stand apart in the source and are kept apart here.

Assays:
Activin A (Homo sapiens) = Activin A (Homo sapiens) (UniProt P08476); experiment: SPR
BMP9 (Homo sapiens) [1] = target: BMP9 (Homo sapiens) (UniProt Q9UK05); experiment: SPR
BMP9 (Homo sapiens) [2] = target: BMP9 (Homo sapiens) (UniProt Q9UK05)
BMP9 (Homo sapiens) [3] = target: BMP9 (Homo sapiens) (UniProt Q9UK05); remark: listed apart in the source
BMP9 (Homo sapiens) [4] = target: BMP9 (Homo sapiens) (UniProt Q9UK05); remark: listed apart in the source

UniProt Q9UK05, sequence (Q9UK05 320-429): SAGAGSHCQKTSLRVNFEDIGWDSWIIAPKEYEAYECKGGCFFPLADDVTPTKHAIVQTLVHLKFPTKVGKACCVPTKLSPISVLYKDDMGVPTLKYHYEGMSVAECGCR
UniProt P08476, sequence (P08476 311-426): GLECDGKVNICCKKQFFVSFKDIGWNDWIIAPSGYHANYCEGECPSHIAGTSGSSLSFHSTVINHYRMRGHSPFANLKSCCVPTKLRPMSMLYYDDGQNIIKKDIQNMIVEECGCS

In the case of (ACVR2B)2-Fc ECD (from UniProt Q13705), the Kd (Activin A (Homo sapiens)) is listed as 0.0125 nM.
For ACVR2A ECD (from UniProt P27037), the Kd (Activin A (Homo sapiens)) is given as 5.7 nM.
For ACVR2A-Fc ECD (from UniProt P27037), the Kd (Activin A (Homo sapiens)) is given as 0.13 nM.
For ACVR2B ECD (from UniProt Q13705), the Kd (Activin A (Homo sapiens)) is given as 1.1 nM.
In the case of “ACVR2B-Fc (single ECD) ECD (from UniProt Q13705)”, the Kd (Activin A (Homo sapiens)) is given as 0.108 nM.
In the case of ACVR2B-Fc ECD (from UniProt Q13705), the Kd (BMP9 (Homo sapiens) [1]) is listed as 0.033 nM and 0.116 nM and the Kd (Activin A (Homo sapiens)) is listed as 0.0092 nM.
For ALK1-ECD ECD (from UniProt P37023), the Kd (BMP9 (Homo sapiens) [2]) is given as 0.0716 nM.
For ALK1-Fc ECD (from UniProt P37023), the Kd (BMP9 (Homo sapiens) [1]) is given as 0.0313 nM and the Kd (BMP9 (Homo sapiens) [3]) is given as 0.0481 nM and 0.0455 nM.
In the case of ALK2-Fc ECD (from UniProt Q04771), the Kd (BMP9 (Homo sapiens) [4]) is listed as 83 nM.
For BMPR2 ECD (from UniProt Q13873), the Kd (Activin A (Homo sapiens)) is listed as 59 nM.
In the case of BMPR2-Fc ECD (from UniProt Q13873), the Kd (Activin A (Homo sapiens)) is given as 14 nM.
